The subject of data set [1] is BAP1 C91A;ASXL1 DEUBAD (ASXL1DEU). Description: stopped-flow fluorescence polarization. The conditions noted are these: 20 C, 20 nM NCP, histone H2A K119 mono-ubiquitinated by RING1B/BMI1, EMSA: 100 nM NCP, 4-12% Tris-glycine native gel, 4 C, FP: 25 mM HEPES pH 7.5, 150 mM NaCl, 0.05% Tween-20, 0.5 mM TCEP. On the technique in general: In EMSA bound probe runs differently from free probe, usually more slowly.

The target in data set [2] is Nucleosome core particle mono-ubiquitinated at H2A K119 with N-terminally TAMRA-labeled ubiquitin (Xenopus | not stated) (UniProt P06897). Description: fluorescence polarisation; stopped-flow; 20 nM ^TAMRAUb-NCP mixed with various concentrations of inactive (C91A) BAP1 or BAP1/ASXL1^DEU; 25 mM HEPES pH 7.5, 150 mM NaCl, 0.05% Tween-20, 0.5 mM TCEP; 20 °C; kobs against concentration by linear regression. (In general: Fluorescence polarisation rises when a labelled molecule tumbles more slowly, as on binding a larger partner.)

Data set [3] concerns the target BRCA-1-associated protein 1 (BAP1), full length, wild type (human) (UniProt Q92560).
The target in data set [4] is BAP1/ASXL1^DEU complex (wild type) (human) (UniProt Q92560).
Data set [5] addresses BAP1/ASXL1DEU complex (human) (UniProt Q92560).

Here are results for four substances from paper PMC4729829, “BAP1/ASXL1 recruitment and activation for H2A deubiquitination” (Nature Communications, 2016).

Usually Kd stands for the constant that tells how readily two partners part at equilibrium. A higher Kd goes with weaker binding. Regarding “TAMRA-Ub-NCP (H2A K119ub, Widom 601 167 bp)”, the Kd in data set [1] was 4 µM.

In turn, “BAP1 (C91A)/ASXL1^DEU complex (from UniProt Q92560 1-729; Q8IXJ9 238-390)” showed a Kd in data set [2] of 4 µM.

Consider “Non-hydrolyzable H2A-peptide ubiquitin conjugate (ubiquitin linked at the K119 position) (from UniProt P0CG48 1-75)”, for which, in data set [3], the IC50 of inhibition of Ub-AMC hydrolysis by BAP1 (500 pM enzyme, 2 μM Ub-AMC, conjugate up to 200 μM) stood at 45 μM. The IC50 of inhibition of Ub-AMC hydrolysis by the BAP1/ASXL1^DEU complex, against BAP1 alone (fold lower than BAP1 alone) in data set [4] was > 10.

As to “non-hydrolyzable H2A-peptide ubiquitin conjugate (H2A-K119) (from UniProt P0CG47 1-75)”, the Supplementary Table 3: IC50 of the non-hydrolyzable H2A ubiquitin conjugate for inhibition of Ub-AMC hydrolysis by BAP1/ASXL1DEU in data set [5] was found to be 3.3 µM.
